*1 amine or outer side, *2 acyl side, *3 side chain or, on linkers, in order; H or OH if unused. Side-chain parts run from the residue outwards. The star is where a group is joined. C18 diacid = O=C(O)CCCCCCCCCCCCCCCCC(=O)*; γGlu = O=C(O)[C@H](CCC(=O)[*:2])N[*:1]; Isovaleryl = CC(C)CC(=O)*; AEEA = NCCOCCOCC(=O)O
B1: Compound 147 (peptide)
peptide: Isovaleryl-APEK([AEEA-AEEA-γGlu-C18 diacid])PEEDASPEETQKYYVSLRHYYNWLTRQRY-NH2
SMILES: CC(C)CC(=O)N[C@@H](C)C(=O)N1CCC[C@H]1C(=O)N[C@@H](CCC(=O)O)C(=O)N[C@@H](CCCCNC(=O)COCCOCCNC(=O)COCCOCCNC(=O)CC[C@H](NC(=O)CCCCCCCCCCCCCCCCC(=O)O)C(=O)O)C(=O)N1CCC[C@H]1C(=O)N[C@@H](CCC(=O)O)C(=O)N[C@@H](CCC(=O)O)C(=O)N[C@@H](CC(=O)O)C(=O)N[C@@H](C)C(=O)N[C@@H](CO)C(=O)N1CCC[C@H]1C(=O)N[C@@H](CCC(=O)O)C(=O)N[C@@H](CCC(=O)O)C(=O)N[C@H](C(=O)N[C@@H](CCC(N)=O)C(=O)N[C@@H](CCCCN)C(=O)N[C@@H](Cc1ccc(O)cc1)C(=O)N[C@@H](Cc1ccc(O)cc1)C(=O)N[C@H](C(=O)N[C@@H](CO)C(=O)N[C@@H](CC(C)C)C(=O)N[C@@H](CCCNC(=N)N)C(=O)N[C@@H](Cc1c[nH]cn1)C(=O)N[C@@H](Cc1ccc(O)cc1)C(=O)N[C@@H](Cc1ccc(O)cc1)C(=O)N[C@@H](CC(N)=O)C(=O)N[C@@H](Cc1c[nH]c2ccccc12)C(=O)N[C@@H](CC(C)C)C(=O)N[C@H](C(=O)N[C@@H](CCCNC(=N)N)C(=O)N[C@@H](CCC(N)=O)C(=O)N[C@@H](CCCNC(=N)N)C(=O)N[C@@H](Cc1ccc(O)cc1)C(N)=O)[C@@H](C)O)C(C)C)[C@@H](C)O
B2: Compound 149 (peptide)
peptide: Isovaleryl-APEK([AEEA-AEEA-γGlu-C18 diacid])PEEAASPEELQRYYVELRHYYNWLTRQRY-NH2
SMILES: CC(C)CC(=O)N[C@@H](C)C(=O)N1CCC[C@H]1C(=O)N[C@@H](CCC(=O)O)C(=O)N[C@@H](CCCCNC(=O)COCCOCCNC(=O)COCCOCCNC(=O)CC[C@H](NC(=O)CCCCCCCCCCCCCCCCC(=O)O)C(=O)O)C(=O)N1CCC[C@H]1C(=O)N[C@@H](CCC(=O)O)C(=O)N[C@@H](CCC(=O)O)C(=O)N[C@@H](C)C(=O)N[C@@H](C)C(=O)N[C@@H](CO)C(=O)N1CCC[C@H]1C(=O)N[C@@H](CCC(=O)O)C(=O)N[C@@H](CCC(=O)O)C(=O)N[C@@H](CC(C)C)C(=O)N[C@@H](CCC(N)=O)C(=O)N[C@@H](CCCNC(=N)N)C(=O)N[C@@H](Cc1ccc(O)cc1)C(=O)N[C@@H](Cc1ccc(O)cc1)C(=O)N[C@H](C(=O)N[C@@H](CCC(=O)O)C(=O)N[C@@H](CC(C)C)C(=O)N[C@@H](CCCNC(=N)N)C(=O)N[C@@H](Cc1c[nH]cn1)C(=O)N[C@@H](Cc1ccc(O)cc1)C(=O)N[C@@H](Cc1ccc(O)cc1)C(=O)N[C@@H](CC(N)=O)C(=O)N[C@@H](Cc1c[nH]c2ccccc12)C(=O)N[C@@H](CC(C)C)C(=O)N[C@H](C(=O)N[C@@H](CCCNC(=N)N)C(=O)N[C@@H](CCC(N)=O)C(=O)N[C@@H](CCCNC(=N)N)C(=O)N[C@@H](Cc1ccc(O)cc1)C(N)=O)[C@@H](C)O)C(C)C
B3: Compound 150 (peptide)
peptide: Isovaleryl-APEK([AEEA-AEEA-γGlu-C18 diacid])PEEDAEPEELQKYYVSLRHYYNWLTRQRY-NH2
SMILES: CC(C)CC(=O)N[C@@H](C)C(=O)N1CCC[C@H]1C(=O)N[C@@H](CCC(=O)O)C(=O)N[C@@H](CCCCNC(=O)COCCOCCNC(=O)COCCOCCNC(=O)CC[C@H](NC(=O)CCCCCCCCCCCCCCCCC(=O)O)C(=O)O)C(=O)N1CCC[C@H]1C(=O)N[C@@H](CCC(=O)O)C(=O)N[C@@H](CCC(=O)O)C(=O)N[C@@H](CC(=O)O)C(=O)N[C@@H](C)C(=O)N[C@@H](CCC(=O)O)C(=O)N1CCC[C@H]1C(=O)N[C@@H](CCC(=O)O)C(=O)N[C@@H](CCC(=O)O)C(=O)N[C@@H](CC(C)C)C(=O)N[C@@H](CCC(N)=O)C(=O)N[C@@H](CCCCN)C(=O)N[C@@H](Cc1ccc(O)cc1)C(=O)N[C@@H](Cc1ccc(O)cc1)C(=O)N[C@H](C(=O)N[C@@H](CO)C(=O)N[C@@H](CC(C)C)C(=O)N[C@@H](CCCNC(=N)N)C(=O)N[C@@H](Cc1c[nH]cn1)C(=O)N[C@@H](Cc1ccc(O)cc1)C(=O)N[C@@H](Cc1ccc(O)cc1)C(=O)N[C@@H](CC(N)=O)C(=O)N[C@@H](Cc1c[nH]c2ccccc12)C(=O)N[C@@H](CC(C)C)C(=O)N[C@H](C(=O)N[C@@H](CCCNC(=N)N)C(=O)N[C@@H](CCC(N)=O)C(=O)N[C@@H](CCCNC(=N)N)C(=O)N[C@@H](Cc1ccc(O)cc1)C(N)=O)[C@@H](C)O)C(C)C
B4: Compound 151 (peptide)
peptide: Isovaleryl-APEK([AEEA-AEEA-γGlu-C18 diacid])PEAEASPEELQRYYVSLRHYYNWLTRQRY-NH2
SMILES: CC(C)CC(=O)N[C@@H](C)C(=O)N1CCC[C@H]1C(=O)N[C@@H](CCC(=O)O)C(=O)N[C@@H](CCCCNC(=O)COCCOCCNC(=O)COCCOCCNC(=O)CC[C@H](NC(=O)CCCCCCCCCCCCCCCCC(=O)O)C(=O)O)C(=O)N1CCC[C@H]1C(=O)N[C@@H](CCC(=O)O)C(=O)N[C@@H](C)C(=O)N[C@@H](CCC(=O)O)C(=O)N[C@@H](C)C(=O)N[C@@H](CO)C(=O)N1CCC[C@H]1C(=O)N[C@@H](CCC(=O)O)C(=O)N[C@@H](CCC(=O)O)C(=O)N[C@@H](CC(C)C)C(=O)N[C@@H](CCC(N)=O)C(=O)N[C@@H](CCCNC(=N)N)C(=O)N[C@@H](Cc1ccc(O)cc1)C(=O)N[C@@H](Cc1ccc(O)cc1)C(=O)N[C@H](C(=O)N[C@@H](CO)C(=O)N[C@@H](CC(C)C)C(=O)N[C@@H](CCCNC(=N)N)C(=O)N[C@@H](Cc1c[nH]cn1)C(=O)N[C@@H](Cc1ccc(O)cc1)C(=O)N[C@@H](Cc1ccc(O)cc1)C(=O)N[C@@H](CC(N)=O)C(=O)N[C@@H](Cc1c[nH]c2ccccc12)C(=O)N[C@@H](CC(C)C)C(=O)N[C@H](C(=O)N[C@@H](CCCNC(=N)N)C(=O)N[C@@H](CCC(N)=O)C(=O)N[C@@H](CCCNC(=N)N)C(=O)N[C@@H](Cc1ccc(O)cc1)C(N)=O)[C@@H](C)O)C(C)C
B5: Compound 152 (peptide)
peptide: Isovaleryl-APEK([AEEA-AEEA-γGlu-C18 diacid])AEEDASPEEIQRYYVSLRHYYNWLTRQRY-NH2
SMILES: CC[C@H](C)[C@H](NC(=O)[C@H](CCC(=O)O)NC(=O)[C@H](CCC(=O)O)NC(=O)[C@@H]1CCCN1C(=O)[C@H](CO)NC(=O)[C@H](C)NC(=O)[C@H](CC(=O)O)NC(=O)[C@H](CCC(=O)O)NC(=O)[C@H](CCC(=O)O)NC(=O)[C@H](C)NC(=O)[C@H](CCCCNC(=O)COCCOCCNC(=O)COCCOCCNC(=O)CC[C@H](NC(=O)CCCCCCCCCCCCCCCCC(=O)O)C(=O)O)NC(=O)[C@H](CCC(=O)O)NC(=O)[C@@H]1CCCN1C(=O)[C@H](C)NC(=O)CC(C)C)C(=O)N[C@@H](CCC(N)=O)C(=O)N[C@@H](CCCNC(=N)N)C(=O)N[C@@H](Cc1ccc(O)cc1)C(=O)N[C@@H](Cc1ccc(O)cc1)C(=O)N[C@H](C(=O)N[C@@H](CO)C(=O)N[C@@H](CC(C)C)C(=O)N[C@@H](CCCNC(=N)N)C(=O)N[C@@H](Cc1c[nH]cn1)C(=O)N[C@@H](Cc1ccc(O)cc1)C(=O)N[C@@H](Cc1ccc(O)cc1)C(=O)N[C@@H](CC(N)=O)C(=O)N[C@@H](Cc1c[nH]c2ccccc12)C(=O)N[C@@H](CC(C)C)C(=O)N[C@H](C(=O)N[C@@H](CCCNC(=N)N)C(=O)N[C@@H](CCC(N)=O)C(=O)N[C@@H](CCCNC(=N)N)C(=O)N[C@@H](Cc1ccc(O)cc1)C(N)=O)[C@@H](C)O)C(C)C
B6: Compound 153 (peptide)
peptide: Isovaleryl-APEK([AEEA-AEEA-γGlu-C18 diacid])VEEEASPEELQRYYVSLRHYYNWLTRQRY-NH2
SMILES: CC(C)CC(=O)N[C@@H](C)C(=O)N1CCC[C@H]1C(=O)N[C@@H](CCC(=O)O)C(=O)N[C@@H](CCCCNC(=O)COCCOCCNC(=O)COCCOCCNC(=O)CC[C@H](NC(=O)CCCCCCCCCCCCCCCCC(=O)O)C(=O)O)C(=O)N[C@H](C(=O)N[C@@H](CCC(=O)O)C(=O)N[C@@H](CCC(=O)O)C(=O)N[C@@H](CCC(=O)O)C(=O)N[C@@H](C)C(=O)N[C@@H](CO)C(=O)N1CCC[C@H]1C(=O)N[C@@H](CCC(=O)O)C(=O)N[C@@H](CCC(=O)O)C(=O)N[C@@H](CC(C)C)C(=O)N[C@@H](CCC(N)=O)C(=O)N[C@@H](CCCNC(=N)N)C(=O)N[C@@H](Cc1ccc(O)cc1)C(=O)N[C@@H](Cc1ccc(O)cc1)C(=O)N[C@H](C(=O)N[C@@H](CO)C(=O)N[C@@H](CC(C)C)C(=O)N[C@@H](CCCNC(=N)N)C(=O)N[C@@H](Cc1c[nH]cn1)C(=O)N[C@@H](Cc1ccc(O)cc1)C(=O)N[C@@H](Cc1ccc(O)cc1)C(=O)N[C@@H](CC(N)=O)C(=O)N[C@@H](Cc1c[nH]c2ccccc12)C(=O)N[C@@H](CC(C)C)C(=O)N[C@H](C(=O)N[C@@H](CCCNC(=N)N)C(=O)N[C@@H](CCC(N)=O)C(=O)N[C@@H](CCCNC(=N)N)C(=O)N[C@@H](Cc1ccc(O)cc1)C(N)=O)[C@@H](C)O)C(C)C)C(C)C

target: T1, human neuropeptide Y2 receptor (human, UniProt P49146 1-381); assay: radioligand competition (125I-PYY(1-36)), hNPY2R membranes
T1 construct: whole, on cells; also called hNPY2 receptor; hNPY2-R
T1 sequence (looked up): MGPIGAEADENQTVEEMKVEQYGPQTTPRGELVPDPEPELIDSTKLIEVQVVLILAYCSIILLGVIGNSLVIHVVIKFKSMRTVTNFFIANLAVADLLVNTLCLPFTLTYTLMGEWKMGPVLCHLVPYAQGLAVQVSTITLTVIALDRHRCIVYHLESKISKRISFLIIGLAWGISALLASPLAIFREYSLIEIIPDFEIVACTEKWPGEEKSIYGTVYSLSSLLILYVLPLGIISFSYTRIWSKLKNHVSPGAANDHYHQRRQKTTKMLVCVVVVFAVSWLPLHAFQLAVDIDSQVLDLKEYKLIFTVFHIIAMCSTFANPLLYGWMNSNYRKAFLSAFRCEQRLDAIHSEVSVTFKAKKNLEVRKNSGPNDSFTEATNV
Method in brief: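 Commercial human Y2 receptor membranes (0.5 μg protein/well) were incubated with peptide for 2 h at room temperature in 50 mM HEPES, 5 mM MgCl₂, 1 mM CaCl₂, pH 7.4, with 0.2% ovalbumin. Bound radioligand was separated on PEI-soaked GF/C filters and counted by scintillation, and IC₅₀ came from nonlinear sigmoidal regression.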

**Q.** B1 was tested. Which Ki did it give?
**A.** Its Ki is 1.19 nM.

**Q.** B2 was tested. Which Ki did it give?
**A.** Its Ki is 2.75 nM.

**Q.** For B3, which Ki is on record?
**A.** Its Ki is 2.02 nM.

**Q.** Which Ki does the source give for B4 here?
**A.** The Ki was 1.43 nM.

**Q.** B5 was tested. Which Ki did it give?
**A.** Its Ki is 5.18 nM.

**Q.** Which Ki does the source give for B6 here?
**A.** Its Ki is 14.4 nM.

— patent publication US20210139548A1 (published 2021)
